Data on eight molecules can be found in paper PMC3676807, “A Chimeric UDP-Glucose Pyrophosphorylase Produced by Protein Engineering Exhibits Sensitivity to Allosteric Regulators” (International Journal of Molecular Sciences, 2013).

The target of data set [1] is T1, SmuGalU-Δ294EcoGlgC (chimeric UDP-Glc PPase).
T1 construct: gene galU; entire S. mutans GalU fused to the 137 C-terminal residues of E. coli GlgC (from P295); N-terminal His-tag kept; E. coli BL21 (DE3) pLysS; homotetramer ~200 kDa
Briefly: Pi release after pyrophosphatase, Malachite Green; Hill fit. It counts as biochemical, Streptococcus mutans; Escherichia coli. To be noted: allosteric activator; 1 mM Glc-1P, 1 mM UTP, 3 mM Mg2+, pH 8.0, 37 °C; read-out: A0.5.

The subject of data set [2] is T1, SmuGalU-Δ294EcoGlgC (chimeric UDP-Glc PPase). The description is as above. To be noted: UDP-Glc synthesis, no effector, 3 mM Mg2+, pH 8.0, 37 °C. The data set is classed as biochemical, Streptococcus mutans; Escherichia coli. The source says:
Pi release after pyrophosphatase, Malachite Green; Hill fit on SmuGalU-Δ294EcoGlgC (chimeric UDP-Glc PPase)

In data set [3] the target is UDP-glucose pyrophosphorylase from Streptococcus mutans (SmuGalU) (Streptococcus mutans ATCC 25175). Kind of data set: SEC; gel filtration on Superdex 200 (Tricorn 5/200 column), calibrated with protein standards 44-669 kDa; mass of the native protein; buffer not stated. (Size exclusion chromatography separates by hydrodynamic size, large species first.)
Data set [4] addresses chimeric SmuGalU-Δ294EcoGlgC (Streptococcus mutans ATCC 25175 | Escherichia coli) (UniProt P0A6V1). Described as above.
Substrate in data set [5]: Cc1cn([C@H]2C[C@H](O)[C@@H](COP(=O)(O)OP(=O)(O)OP(=O)(O)O)O2)c(=O)[nH]c1=O
Kind of data set: Pi release after pyrophosphatase, Malachite Green; Hill fit. The data set is classed as biochemical, Streptococcus mutans. To be noted: dTDP-Glc synthesis, 1 mM Glc-1P, 3 mM Mg2+, pH 8.0, 37 °C.

Substrate in data set [6]: O=P(O)(O)O[C@H]1O[C@H](CO)[C@@H](O)[C@H](O)[C@H]1O
The description is as above. It counts as biochemical, Streptococcus mutans. To be noted: UDP-Glc synthesis, saturating UTP, 3 mM Mg2+, pH 8.0, 37 °C.

Substrate in data set [7]: O=c1ccn([C@@H]2O[C@H](COP(=O)(O)OP(=O)(O)OP(=O)(O)O)[C@@H](O)[C@H]2O)c(=O)[nH]1
The description is as above. It counts as biochemical, Streptococcus mutans. The settings on record: UDP-Glc synthesis, saturating Glc-1P, 3 mM Mg2+, pH 8.0, 37 °C.

For `O=C(O)[C@H](O)COP(=O)(O)O` [3-PGA], in data set [1], the EC50 is 5.4 mM.

Turning to `O=P(O)(O)OC[C@H]1OC(O)(COP(=O)(O)O)[C@@H](O)[C@@H]1O` (some centres unmarked) [Fru-1,6-bisP], the EC50 in data set [1] turned out to be 2 mM.

One may read the Km as the substrate concentration at which the rate is half of its maximum. Consider `O=P(O)(O)O[C@H]1O[C@H](CO)[C@@H](O)[C@H](O)[C@H]1O` [Glc-1P], for which, in data set [2] (saturating UTP), the Km is 60 ± 5 µM.

For the molecule `CC(=O)C(=O)O` [Pyr], the EC50 in data set [1] was found to be 30 mM.

On to `O=c1ccn([C@@H]2O[C@H](COP(=O)(O)OP(=O)(O)OP(=O)(O)O)[C@@H](O)[C@H]2O)c(=O)[nH]1` [UTP], for which, in data set [2] (saturating Glc-1P), the Km came out at 240 ± 20 µM.

Usually stoichiometry N stands for the number of molecules, sites or subunits per partner or assembly. In turn, “UDP-glucose pyrophosphorylase from Streptococcus mutans (SmuGalU) (enzyme)” returned a stoichiometry N in data set [3] of 4.

In data set [4], “chimeric SmuGalU-Δ294EcoGlgC (from UniProt P0A6V1 295-431) (enzyme)” came in with a stoichiometry N of 4.

B1: SmuGalU (UDP-Glc PPase from S. mutans) (Streptococcus mutans UA159) (protein)
chain: MPSKKVRKAVIPAAGLGTRFLPATKALAKEMLPIVDKPTIQFIVEEALKSGIEDILVVTGKSKRSIEDHFDSNFELEYNLEQKGKTDLLKLVNDTTAINLHFIRQSHPRGLGDAVLQAKAFVGNEPFVVMLGDDLMDITDDKAIPLTRQLMNDYEETHASTIAVMEVPHEDVSAYGVIAPQGEGVSGLYSVDTFVEKPAPKEAPSNLAIIGRYLLTPEIFTILETQEPGAGNEVQLTDAIDTLNKTQRVFAREFKGKRYDVGDKFGFMKTSIDYALKHPQVKEDLKAYIIELGKKLDQKSTQKNSD
notes: full-length, N-terminal His-tag kept (pRSET-B), expressed in E. coli BL21 (DE3), Ni-NTA purified; homotetramer ~150 kDa; gene 921 bp
The Vmax is the rate approached at saturating substrate. Regarding B1, the K0.5 is reported as 0.54 mM in data set [5], 0.090 ± 0.005 mM in data set [6] and 0.68 ± 0.06 mM in data set [7]. The Vmax in data set [6] and in data set [7] was 62.1 µmol/min/mg each time. The figures for the Vmax/Km in data set [6] and in data set [7] were 690000 µL/min/mg and 91300 µL/min/mg, respectively.
